Results published in paper PMC2849673 (Biochemistry, 2010).

Molecular target: the molecule itself
Assay: crystal structure

B1: E-2-(acetamidomethylene)succinate (E-2AMS) hydrolase (enzyme, Mesorhizobium loti MAFF303099, UniProt Q988D4 1-278, looked up)
chain: MDMAADIASDHFISRRVDIGRITLNVREKGSGPLMLFFHGITSNSAVFEPLMIRLSDRFTTIAVDQRGHGLSDKPETGYEANDYADDIAGLIRTLARGHAILVGHSLGARNSVTAAAKYPDLVRSVVAIDFTPYIETEALDALEARVNAGSQLFEDIKAVEAYLAGRYPNIPADAIRIRAESGYQPVDGGLRPLASSAAMAQTARGLRSDLVPAYRDVTKPVLIVRGESSKLVSAAALAKTSRLRPDLPVVVVPGADHYVNEVSPEITLKAITNFIDA
With B1 the “stoichiometry N” value was 2.
